Substrate: O=[N+]([O-])c1ccc(O[C@@H]2O[C@@H](CO)[C@H](O)[C@H]2O)cc1
Assay: purified protein
Format: biochemical, Alicyclobacillus sp. A4
Details: pH 6.0, McIlvaine buffer, 60 °C, 5 min, substrate 1-10 mM

B1: Ac-Abf51A (Alicyclobacillus sp. A4) (protein)
chain: MSKSIARMTIDPQYQLADVDPRLFGSFIEHLGRAVYGGIYEPDHPSADEMGFRQDVLELVRELQVPIVRYPGGNFVSGYRWEDGVGPLASRPAQLDLAWRSLEPNRVGVNEFVEWAKRANSEVMMAVNLGTRGIDEAKQIVEYCNHPGGSYWSDLRKSHGYEQPHGIKVWCLGNEMDGPWQIGHKTAEEYGRIAEEAAKVMKWVDPSIELVACGSSGSKMPTFPDWERIVLEHTYDHVEYISMHSYYGNRENDLATYLAQSLDMDHFIRSVIATCDYVKAKKRSKKTINISFDEWNVWFHSNEADKQVAPWQVGPPLLEDVYTFEDALVVGCLLITLLRHADRVKMACLAQLVNVIAPIMTENGGVSWKQTIYYPFLHASRYGRGKVMHCSLQSPKYDCKEFTDVPLVESVAVWNQDIAELTIFAVNRSQDGGIELECDIRGFAQASVIEHTVLVHSDLKAANTKEEPQEVIPQHAQGAKVDGGLLFAPLPKLSWNVIRLRV
notes: no signal peptide; pET-30a(+) NdeI/NotI, C-terminal His tag inferred from cloning; E. coli BL21(DE3); Ni-NTA
Work on B1 yielded a Km of 460 µM and a kcat of 23.0 s⁻¹.
